Laboratory results taken from US20220372155A1 (LYVGEN BIOPHARMA, published 2022).

Biological target: T1, human CD40 expressed on CHO cells (human, UniProt P25942 21-277)
T1 construct: whole, on cells; also used for the reporter cells over-expressing human CD40; also called cellular CD40; CHO-CD40 cells
Assay: FACS, CHO cells

T1 sequence (P25942 21-277): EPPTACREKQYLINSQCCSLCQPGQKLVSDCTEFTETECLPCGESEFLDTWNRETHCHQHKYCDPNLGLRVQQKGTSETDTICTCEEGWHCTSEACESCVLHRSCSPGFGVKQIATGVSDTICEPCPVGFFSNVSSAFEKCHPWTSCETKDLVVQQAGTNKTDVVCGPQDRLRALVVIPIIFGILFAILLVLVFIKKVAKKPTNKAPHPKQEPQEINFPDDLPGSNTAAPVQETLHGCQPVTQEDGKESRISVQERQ

| binding result | Binder |
| --- | --- |
| binds | Ly407 (bispecific antibody, human IgG1, kappa, Ly312 HC (IgG1 mutated Fc) + Ly312 LC-TM740 scFv VL-VH) heavy: EVQLVESGGGLVQPGGSLRLSCAASGFNIKDTYMHWVRQAPGKGLEWVARIDPANGNSKYADSVKGRFTISADTSKNTAYLQMNSLRAEDTAVYYCAPFGYYVSDYAMAYWGQGTLVTVSSASTKGPSVFPLAPSSKSTSGGTAALGCLVKDYFPEPVTVSWNSGALTSGVHTFPAVLQSSGLYSLSSVVTVPSSSLGTQTYICNVNHKPSNTKVDKKVEPKSCDKTHTCPPCPAPELLGPSVFLFPPKPKDTLMISRTPEVTCVVVDVSHEDPEVKFNWYVDGVEVHNAKTKPREEQYNSTYRVVSVLTVLHQDWLNGKEYKCKVSNKALPAPIEKTISKAKGQPREPQVYTLPPSREEMTKNQVSLTCLVKGFYPSDIAVEWESNGQPENNYKTTPPVLDSDGSFFLYSKLTVDKSRWQQGNVFSCSVMHEALHNHYTQKSLSLSPGK light: DIQLTQSPSSLSASVGDRVTITCRAGESVDIFGVGFLHWYQQKPGKAPKLLIYRASNLESGVPSRFSGSGSRTDFTLTISSLQPEDFATYYCQQTNEDPYTFGQGTKVEIKRTVAAPSVFIFPPSDEQLKSGTASVVCLLNNFYPREAKVQWKVDNALQSGNSQESVTEQDSKDSTYSLSSTLTLSKADYEKHKVYACEVTHQGLSSPVTKSFNRGECGGGGSGGGGSGGGGSGGGGSDIQMTQSPSSLSASVGDRVTITCKASQNIYIYLNWYQQKPGKAPKLLIYNTNNLQTGVPSRFSGSGSGTDFTLTISSLQPEDFATYYCLQHSSRRTFGGGTKVEIKGGGGSGGGGSGGGGSGGGGSQVQLVESGGGLVQPGGSLKLSCATSGFNFNDYFMNWVRQASGKGLEWVGQIRNKNYNYATYYTESLEGRVTISRDDSKNTAYLQMNSLKTEDTAVYYCTSYYYDGFADYFDYWGQGTTVTVSS |
| binds | Ly408 (bispecific antibody, human IgG1, kappa, Ly312 HC (IgG1 mutated Fc) + Ly312 LC-TM740 scFv VH-VL) heavy: EVQLVESGGGLVQPGGSLRLSCAASGFNIKDTYMHWVRQAPGKGLEWVARIDPANGNSKYADSVKGRFTISADTSKNTAYLQMNSLRAEDTAVYYCAPFGYYVSDYAMAYWGQGTLVTVSSASTKGPSVFPLAPSSKSTSGGTAALGCLVKDYFPEPVTVSWNSGALTSGVHTFPAVLQSSGLYSLSSVVTVPSSSLGTQTYICNVNHKPSNTKVDKKVEPKSCDKTHTCPPCPAPELLGPSVFLFPPKPKDTLMISRTPEVTCVVVDVSHEDPEVKFNWYVDGVEVHNAKTKPREEQYNSTYRVVSVLTVLHQDWLNGKEYKCKVSNKALPAPIEKTISKAKGQPREPQVYTLPPSREEMTKNQVSLTCLVKGFYPSDIAVEWESNGQPENNYKTTPPVLDSDGSFFLYSKLTVDKSRWQQGNVFSCSVMHEALHNHYTQKSLSLSPGK light: DIQLTQSPSSLSASVGDRVTITCRAGESVDIFGVGFLHWYQQKPGKAPKLLIYRASNLESGVPSRFSGSGSRTDFTLTISSLQPEDFATYYCQQTNEDPYTFGQGTKVEIKRTVAAPSVFIFPPSDEQLKSGTASVVCLLNNFYPREAKVQWKVDNALQSGNSQESVTEQDSKDSTYSLSSTLTLSKADYEKHKVYACEVTHQGLSSPVTKSFNRGECGGGGSGGGGSGGGGSGGGGSQVQLVESGGGLVQPGGSLKLSCATSGFNFNDYFMNWVRQASGKGLEWVGQIRNKNYNYATYYTESLEGRVTISRDDSKNTAYLQMNSLKTEDTAVYYCTSYYYDGFADYFDYWGQGTTVTVSSGGGGSGGGGSGGGGSGGGGSDIQMTQSPSSLSASVGDRVTITCKASQNIYIYLNWYQQKPGKAPKLLIYNTNNLQTGVPSRFSGSGSGTDFTLTISSLQPEDFATYYCLQHSSRRTFGGGTKVEIK |

The remaining lines, values behind:

| Binder | binding result |
| --- | --- |
| Ly409 (bispecific antibody, human IgG1, kappa, Ly311 HC (IgG1 mutated Fc)-TM559 scFv VL-VH + Ly311 LC) heavy: EVQLVESGGGVVQPGRSLRLSCSASGFDFTTYWMSWVRQAPGKGLEWIGEIHPDSSTINYAPSLKDRFTISRDNAKNTLFLQMDSLRPEDTGVYFCASLYFGFPWFAYWGQGTPVTVSSASTKGPSVFPLAPSSKSTSGGTAALGCLVKDYFPEPVTVSWNSGALTSGVHTFPAVLQSSGLYSLSSVVTVPSSSLGTQTYICNVNHKPSNTKVDKKVEPKSCDKTHTCPPCPAPELLGPSVFLFPPKPKDTLMISRTPEVTCVVVDVSHEDPEVKFNWYVDGVEVHNAKTKPREEQYNSTYRVVSVLTVLHQDWLNGKEYKCKVSNKALPAPIEKTISKAKGQPREPQVYTLPPSREEMTKNQVSLTCLVKGFYPSDIAVEWESNGQPENNYKTTPPVLDSDGSFFLYSKLTVDKSRWQQGNVFSCSVMHEALHNHYTQKSLSLSPGGGGGSGGGGSGGGGSGGGGSDIQMTQSPSSLSASVGDRVTITCLASEDISNDLAWYQQKPGKAPKLLIYFVDRLLDGVPSRFSGSGSGTDFTLTISSLQPEDFATYYCQQSYKYPPTFGQGTKLEIKGGGGSGGGGSGGGGSGGGGSEVQLVESGGGLVQPGGSLRLSCAASGFTFTNYGLHWVRQAPGKGLEWVSSISPSGGVTYYRDSVKGRFTISRDNSKNTLYLQMNSLRAEDTAVYYCAKPFLGWGGANWIAHWGQGTLVTVSS light: DIQLTQSPSSLSASVGDRVTITCKASQDVGTSVAWYQQKPGKAPKLLIYWTSTRHTGVPSRFSGSGSGTDFTFTISSLQPEDIATYYCQQYSLYRSFGQGTKVEIKRTVAAPSVFIFPPSDEQLKSGTASVVCLLNNFYPREAKVQWKVDNALQSGNSQESVTEQDSKDSTYSLSSTLTLSKADYEKHKVYACEVTHQGLSSPVTKSFNRGEC | binds |
| Ly410 (bispecific antibody, human IgG1, kappa, Ly311 HC (IgG1 mutated Fc)-TM559 scFv VH-VL + Ly311 LC) heavy: EVQLVESGGGVVQPGRSLRLSCSASGFDFTTYWMSWVRQAPGKGLEWIGEIHPDSSTINYAPSLKDRFTISRDNAKNTLFLQMDSLRPEDTGVYFCASLYFGFPWFAYWGQGTPVTVSSASTKGPSVFPLAPSSKSTSGGTAALGCLVKDYFPEPVTVSWNSGALTSGVHTFPAVLQSSGLYSLSSVVTVPSSSLGTQTYICNVNHKPSNTKVDKKVEPKSCDKTHTCPPCPAPELLGPSVFLFPPKPKDTLMISRTPEVTCVVVDVSHEDPEVKFNWYVDGVEVHNAKTKPREEQYNSTYRVVSVLTVLHQDWLNGKEYKCKVSNKALPAPIEKTISKAKGQPREPQVYTLPPSREEMTKNQVSLTCLVKGFYPSDIAVEWESNGQPENNYKTTPPVLDSDGSFFLYSKLTVDKSRWQQGNVFSCSVMHEALHNHYTQKSLSLSPGGGGGSGGGGSGGGGSGGGGSEVQLVESGGGLVQPGGSLRLSCAASGFTFTNYGLHWVRQAPGKGLEWVSSISPSGGVTYYRDSVKGRFTISRDNSKNTLYLQMNSLRAEDTAVYYCAKPFLGWGGANWIAHWGQGTLVTVSSGGGGSGGGGSGGGGSGGGGSDIQMTQSPSSLSASVGDRVTITCLASEDISNDLAWYQQKPGKAPKLLIYFVDRLLDGVPSRFSGSGSGTDFTLTISSLQPEDFATYYCQQSYKYPPTFGQGTKLEIK light: DIQLTQSPSSLSASVGDRVTITCKASQDVGTSVAWYQQKPGKAPKLLIYWTSTRHTGVPSRFSGSGSGTDFTFTISSLQPEDIATYYCQQYSLYRSFGQGTKVEIKRTVAAPSVFIFPPSDEQLKSGTASVVCLLNNFYPREAKVQWKVDNALQSGNSQESVTEQDSKDSTYSLSSTLTLSKADYEKHKVYACEVTHQGLSSPVTKSFNRGEC | binds |
